B1: ZER1 (parent)
chain: KEMARKVIEHCSNFKEENMDTSR

Variants of: B1
Assay: protein stability index of a GFP-peptide fusion (GPS, HEK-293T) (PSI 1-6); higher = more stable
Details: c terminus: native
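Also: lentivirally expressed fusions sorted by FACS into six bins by GFP to DsRed ratio, PSI derived from sequencing read proportions per bin multiplied by bin number.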

Protein stability index, by site and new letter:
V7: L 1.92, H 1.52, Y 2.09, S 4.98, W 3.19, C 4.55, I 1.59, A 4.87, K 4.88, E 5.27, Q 4.87, D 5.26, G 5.13, M 2.44, N 5.1, P 4.46, T 4.89, F 3.83, R 4.65
C11: V 2.84, Q 4.43, E 4.45, M 2.58, W 2.19, F 1.38, L 2.59, T 4.62, I 2.02, D 4.79, S 3.96, G 4.63, N 4.26, Y 2.11, R 4.48, K 4.94, A 4.77, P 4.83, H 3.87
S12: Y 2.73, Q 3.55, E 3.85, G 4.21, C 2.98, D 4.24, A 3.7, W 2.63, P 4.37, I 2.56, R 3.25, T 3.59, F 2.77, M 2.54, N 3.95, L 2.45, H 3.66, V 2.96, K 3.49
M19: C 3.51, S 3.63, V 3.77, L 3.47, A 3.68, P 3.58, E 4.15, Y 3.71, H 3.77, R 3.62, W 3.64, T 3.92, G 3.37, Q 3.87, N 4.29, F 3.94, I 4.32, K 2.81, D 4.46
N18: D 3.52, S 3.7, T 3.45, H 3.47, F 3.07, Q 3.6, A 3.34, I 3.31, W 3.6, G 4.02, Y 3.08, L 2.91, M 3.54, C 3.3, V 3.46, P 3.9, K 2.99, E 4.22, R 2
K6: I 2.36, T 2.74, V 2.52, P 4.47, L 1.52, N 3.89, F 1.72, S 2.96, G 4.21, A 3.58, R 2.63, H 3.09, W 2.71, Q 3.73, D 4.19, M 2.14, E 4.5, C 2.92, Y 1.7
D20: K 2.29, I 1.52, A 1.63, W 2.5, Y 2.89, N 4.59, F 2.98, E 2.51, T 2.99, P 2.46, R 2.13, Q 2.23, L 1.87, G 2.68, V 1.51, C 2.08, H 2.96, M 1.91, S 2.46
H10: E 3.69, K 4.78, S 3.57, M 1.81, N 4.29, C 3.1, A 3.49, L 1.76, Q 3.83, D 4.06, T 3.98, F 2.78, R 3.59, V 3.33, W 2.15, P 5.17, G 4.56, Y 1.9, I 1.94
R5: F 2.48, P 4.74, M 3.13, Y 2.68, N 4.01, H 3.72, L 2.74, G 3.65, S 3.81, Q 3.26, I 2.83, K 4.15, V 3.14, W 1.94, T 3.58

Source: the supplement of paper PMC10567573
